Data from the supplement of paper PMC10065799, “High-throughput profiling of sequence recognition by tyrosine kinases and SH2 domains using bacterial peptide display” (eLife, 2023).

Assays:
Grb2 SH2 = Grb2 SH2 (UniProt P62993); assay: SH2 binding enrichment of the phosphorylated peptide, bacterial display (enrichment ratio); higher = better substrate or ligand; peptides without Tyr show the background
c-Src SH2 = assay: as above
SHP2-C SH2 = assay: as above
Fyn = Fyn (UniProt P06241); assay: phosphorylation enrichment, bacterial display (enrichment ratio); higher = better substrate or ligand; peptides without Tyr show the background
EPHB2 = EPHB2 (UniProt P29323); assay: as above
EPHB1 = EPHB1 (UniProt P54762); assay: as above
Fer (mouse) = assay: as above
Jak2 = Jak2 (UniProt O60674); assay: as above
Hck = Hck (UniProt P08631); assay: as above
MERTK = MERTK (UniProt Q12866); assay: as above
c-Abl (mouse) = assay: as above
FGFR3 = FGFR3 (UniProt P22607); assay: as above
Fes = Fes (UniProt P07332); assay: as above
FGFR1 = FGFR1 (UniProt P11362); assay: as above
AncSZ = assay: as above
c-Src = assay: as above
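For SH2 binding enrichment of the phosphorylated peptide, bacterial display in this document: peptide library displayed on the E. coli surface as eCPX fusions, selected cells deep-sequenced, score is each peptide's frequency after selection divided by its frequency in the input.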
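For phosphorylation enrichment, bacterial display in this document: 11-residue human phosphosite peptides and single-mutation variants displayed on the E. coli surface, counted by deep sequencing, each peptide's frequency after selection divided by its frequency in the unselected input library; frequency after pTyr selection over input frequency; kinase dosed for 20-30% of maximal phosphorylation in three min.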

Chain of FGFR3 (P22607 whole entry, looked up): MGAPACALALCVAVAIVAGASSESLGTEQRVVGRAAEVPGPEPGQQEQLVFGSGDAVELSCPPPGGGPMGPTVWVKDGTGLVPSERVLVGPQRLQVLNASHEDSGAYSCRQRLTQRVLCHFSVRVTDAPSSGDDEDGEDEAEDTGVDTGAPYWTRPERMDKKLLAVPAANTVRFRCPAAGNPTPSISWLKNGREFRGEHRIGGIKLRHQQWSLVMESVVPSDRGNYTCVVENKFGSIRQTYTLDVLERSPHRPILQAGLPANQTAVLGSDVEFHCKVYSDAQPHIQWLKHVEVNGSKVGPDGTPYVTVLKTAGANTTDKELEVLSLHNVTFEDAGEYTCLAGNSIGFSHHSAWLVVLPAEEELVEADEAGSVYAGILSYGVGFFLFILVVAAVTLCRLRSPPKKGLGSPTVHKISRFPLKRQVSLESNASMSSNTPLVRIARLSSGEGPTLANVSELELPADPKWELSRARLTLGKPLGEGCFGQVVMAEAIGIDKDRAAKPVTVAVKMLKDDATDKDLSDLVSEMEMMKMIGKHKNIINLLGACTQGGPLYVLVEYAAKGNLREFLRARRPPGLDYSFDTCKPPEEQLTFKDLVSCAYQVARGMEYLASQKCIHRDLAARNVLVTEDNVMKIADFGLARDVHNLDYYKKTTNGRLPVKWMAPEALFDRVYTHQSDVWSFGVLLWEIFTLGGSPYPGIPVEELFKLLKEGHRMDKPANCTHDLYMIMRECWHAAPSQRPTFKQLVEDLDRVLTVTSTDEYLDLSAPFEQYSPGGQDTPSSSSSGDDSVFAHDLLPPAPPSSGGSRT
Chain of Jak2 (O60674 whole entry, looked up): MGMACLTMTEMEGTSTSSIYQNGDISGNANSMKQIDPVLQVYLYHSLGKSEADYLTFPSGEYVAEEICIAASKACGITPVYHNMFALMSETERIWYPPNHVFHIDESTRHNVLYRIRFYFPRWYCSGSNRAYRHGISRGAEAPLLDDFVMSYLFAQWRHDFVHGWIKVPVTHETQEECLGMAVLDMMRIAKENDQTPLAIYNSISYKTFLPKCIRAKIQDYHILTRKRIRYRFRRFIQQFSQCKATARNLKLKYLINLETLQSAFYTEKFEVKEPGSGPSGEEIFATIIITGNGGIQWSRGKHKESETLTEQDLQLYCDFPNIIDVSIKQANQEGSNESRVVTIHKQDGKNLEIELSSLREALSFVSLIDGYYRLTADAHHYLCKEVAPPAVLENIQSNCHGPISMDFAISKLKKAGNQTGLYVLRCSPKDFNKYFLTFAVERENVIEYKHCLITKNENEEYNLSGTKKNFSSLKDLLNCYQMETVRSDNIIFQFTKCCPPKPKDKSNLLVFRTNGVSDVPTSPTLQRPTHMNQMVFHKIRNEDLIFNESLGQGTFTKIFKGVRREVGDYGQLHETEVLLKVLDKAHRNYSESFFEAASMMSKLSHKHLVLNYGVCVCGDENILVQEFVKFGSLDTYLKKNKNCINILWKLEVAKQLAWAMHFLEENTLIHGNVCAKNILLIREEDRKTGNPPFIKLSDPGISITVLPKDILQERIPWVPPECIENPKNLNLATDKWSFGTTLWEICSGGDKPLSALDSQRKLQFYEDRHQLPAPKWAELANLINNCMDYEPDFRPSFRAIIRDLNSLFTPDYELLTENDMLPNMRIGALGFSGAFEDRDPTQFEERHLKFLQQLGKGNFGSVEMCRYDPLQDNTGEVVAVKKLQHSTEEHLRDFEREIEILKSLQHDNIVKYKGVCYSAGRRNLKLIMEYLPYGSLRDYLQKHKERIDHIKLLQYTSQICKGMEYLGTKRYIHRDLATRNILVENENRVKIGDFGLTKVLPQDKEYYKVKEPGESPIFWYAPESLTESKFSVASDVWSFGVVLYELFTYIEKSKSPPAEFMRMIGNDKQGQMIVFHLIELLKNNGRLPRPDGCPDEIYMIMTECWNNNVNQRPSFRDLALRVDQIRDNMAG
Chain of EPHB1 (P54762 whole entry, looked up): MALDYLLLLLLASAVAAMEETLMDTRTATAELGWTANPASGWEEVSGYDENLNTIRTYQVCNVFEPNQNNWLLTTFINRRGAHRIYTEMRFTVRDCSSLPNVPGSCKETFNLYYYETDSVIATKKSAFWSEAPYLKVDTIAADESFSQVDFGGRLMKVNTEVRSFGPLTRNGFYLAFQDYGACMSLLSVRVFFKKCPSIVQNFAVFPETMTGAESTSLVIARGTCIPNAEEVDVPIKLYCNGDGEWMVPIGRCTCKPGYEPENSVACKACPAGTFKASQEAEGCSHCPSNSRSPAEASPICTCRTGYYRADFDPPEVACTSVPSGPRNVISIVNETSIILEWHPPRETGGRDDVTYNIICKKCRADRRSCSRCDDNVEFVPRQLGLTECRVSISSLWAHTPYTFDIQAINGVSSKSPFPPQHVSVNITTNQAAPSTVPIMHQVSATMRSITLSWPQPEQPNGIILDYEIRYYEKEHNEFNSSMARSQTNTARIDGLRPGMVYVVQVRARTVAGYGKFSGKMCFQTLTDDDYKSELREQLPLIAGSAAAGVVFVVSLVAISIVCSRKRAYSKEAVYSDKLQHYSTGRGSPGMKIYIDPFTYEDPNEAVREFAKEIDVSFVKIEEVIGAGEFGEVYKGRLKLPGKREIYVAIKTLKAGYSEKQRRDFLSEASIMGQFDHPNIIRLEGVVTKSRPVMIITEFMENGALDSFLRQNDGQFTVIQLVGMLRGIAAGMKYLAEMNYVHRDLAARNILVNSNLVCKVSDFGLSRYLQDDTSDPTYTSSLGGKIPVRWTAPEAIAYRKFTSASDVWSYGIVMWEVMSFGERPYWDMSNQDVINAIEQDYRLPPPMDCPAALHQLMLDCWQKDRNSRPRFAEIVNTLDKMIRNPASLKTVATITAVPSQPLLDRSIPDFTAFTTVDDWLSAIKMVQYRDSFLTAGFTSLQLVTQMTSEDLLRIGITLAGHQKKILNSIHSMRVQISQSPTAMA
Chain of MERTK (Q12866 whole entry, looked up): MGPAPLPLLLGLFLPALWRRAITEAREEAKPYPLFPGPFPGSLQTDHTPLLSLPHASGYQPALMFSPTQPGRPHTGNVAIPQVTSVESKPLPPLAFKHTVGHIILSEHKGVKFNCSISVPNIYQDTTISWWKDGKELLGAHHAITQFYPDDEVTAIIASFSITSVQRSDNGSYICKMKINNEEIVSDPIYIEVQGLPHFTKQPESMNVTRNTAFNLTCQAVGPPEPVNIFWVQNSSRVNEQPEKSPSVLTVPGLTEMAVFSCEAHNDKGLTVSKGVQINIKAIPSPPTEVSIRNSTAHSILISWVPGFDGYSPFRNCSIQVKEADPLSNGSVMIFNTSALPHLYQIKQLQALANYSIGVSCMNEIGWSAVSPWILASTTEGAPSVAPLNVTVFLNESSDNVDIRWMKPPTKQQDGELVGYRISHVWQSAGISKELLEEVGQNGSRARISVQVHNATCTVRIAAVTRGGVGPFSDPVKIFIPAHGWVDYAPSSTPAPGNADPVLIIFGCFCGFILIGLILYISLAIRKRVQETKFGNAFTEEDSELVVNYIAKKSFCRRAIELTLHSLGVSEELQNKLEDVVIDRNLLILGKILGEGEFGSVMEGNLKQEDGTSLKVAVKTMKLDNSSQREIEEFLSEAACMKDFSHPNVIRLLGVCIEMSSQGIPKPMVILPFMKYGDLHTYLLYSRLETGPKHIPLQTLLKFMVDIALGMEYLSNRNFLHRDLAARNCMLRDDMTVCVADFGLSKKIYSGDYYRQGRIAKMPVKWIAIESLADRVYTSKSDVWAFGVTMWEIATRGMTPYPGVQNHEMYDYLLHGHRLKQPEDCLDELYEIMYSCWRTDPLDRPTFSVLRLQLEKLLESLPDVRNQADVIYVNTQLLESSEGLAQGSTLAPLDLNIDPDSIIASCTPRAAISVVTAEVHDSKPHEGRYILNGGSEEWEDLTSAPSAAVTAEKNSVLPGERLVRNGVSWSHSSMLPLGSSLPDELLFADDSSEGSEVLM
Chain of Fes (P07332 whole entry, looked up): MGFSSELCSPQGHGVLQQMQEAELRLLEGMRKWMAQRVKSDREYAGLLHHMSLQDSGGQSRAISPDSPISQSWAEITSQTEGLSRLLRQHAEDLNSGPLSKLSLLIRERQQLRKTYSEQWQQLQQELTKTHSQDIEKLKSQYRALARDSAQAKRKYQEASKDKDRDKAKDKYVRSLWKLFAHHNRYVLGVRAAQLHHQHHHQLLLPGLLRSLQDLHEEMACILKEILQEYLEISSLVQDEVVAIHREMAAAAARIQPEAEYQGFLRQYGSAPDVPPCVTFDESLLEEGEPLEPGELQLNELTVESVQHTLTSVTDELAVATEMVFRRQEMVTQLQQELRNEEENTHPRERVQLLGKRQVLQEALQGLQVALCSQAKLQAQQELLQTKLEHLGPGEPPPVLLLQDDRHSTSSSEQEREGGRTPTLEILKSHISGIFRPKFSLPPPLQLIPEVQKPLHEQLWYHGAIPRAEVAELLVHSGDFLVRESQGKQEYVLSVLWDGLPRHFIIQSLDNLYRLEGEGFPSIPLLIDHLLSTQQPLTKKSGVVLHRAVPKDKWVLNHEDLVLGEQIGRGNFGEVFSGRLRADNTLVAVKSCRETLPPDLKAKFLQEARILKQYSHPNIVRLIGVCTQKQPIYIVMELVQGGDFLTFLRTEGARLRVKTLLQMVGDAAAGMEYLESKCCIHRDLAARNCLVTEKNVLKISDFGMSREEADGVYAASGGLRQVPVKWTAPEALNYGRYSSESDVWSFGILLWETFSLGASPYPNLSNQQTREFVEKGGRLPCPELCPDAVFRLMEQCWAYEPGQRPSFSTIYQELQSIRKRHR
Chain of Grb2 SH2 (P62993 whole entry, looked up): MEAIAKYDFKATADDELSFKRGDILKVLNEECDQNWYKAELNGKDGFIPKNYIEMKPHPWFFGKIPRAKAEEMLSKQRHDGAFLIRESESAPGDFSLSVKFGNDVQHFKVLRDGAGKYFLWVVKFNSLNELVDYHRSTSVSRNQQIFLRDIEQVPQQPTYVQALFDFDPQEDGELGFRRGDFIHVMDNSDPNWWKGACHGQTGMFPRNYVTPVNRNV

| Sequence | SH2 binding enrichment (Grb2 SH2) | SH2 binding enrichment (c-Src SH2) | SH2 binding enrichment (SHP2-C SH2) | phosphorylation enrichment (Fyn) | phosphorylation enrichment (EPHB2) | phosphorylation enrichment (EPHB1) | phosphorylation enrichment (Fer (mouse)) | phosphorylation enrichment (Jak2) | phosphorylation enrichment (Hck) | phosphorylation enrichment (MERTK) | phosphorylation enrichment (c-Abl (mouse)) | phosphorylation enrichment (FGFR3) | phosphorylation enrichment (Fes) | phosphorylation enrichment (FGFR1) | phosphorylation enrichment (AncSZ) | phosphorylation enrichment (c-Src) |
| --- | --- | --- | --- | --- | --- | --- | --- | --- | --- | --- | --- | --- | --- | --- | --- | --- |
| CQAHGYFCQLI [STK11_Y156] | 1.2 | 0.984 | 1.17 | 0.405 | 0.546 | 0.413 | 0.402 | 0.751 | 0.436 | 0.407 | 0.514 | 0.609 | 0.836 | 0.479 | 0.873 | 0.428 |
| LKGQVYILGWE [ASS1_Y359_R363W] | 1.01 | 0.684 | 0.827 | 0.575 | 0.57 | 0.655 | 0.642 | 1.14 | 0.508 | 0.428 | 0.804 | 0.81 | 1.4 | 0.544 | 1.14 | 0.575 |
| SVESPYGSVTF [NDRG2_Y47_T45S] | 0.689 | 0.376 | 0.688 | 7.99 | 0.862 | 0.501 | 9.44 | 0.572 | 5.03 | 0.525 | 0.57 | 0.496 | 0.696 | 0.456 | 0.662 | 5.95 |
| PQAVRYIYTID [DCX_Y103_G100A] | 0.882 | 0.644 | 17.1 | 7.37 | 0.722 | 0.74 | 0.67 | 0.983 | 3.66 | 1.72 | 1.01 | 0.74 | 1.42 | 0.723 | 1.12 | 6.46 |
| FVTCTYSPALN [TP53_Y126_S121F] | 0.887 | 0.517 | 0.655 | 0.449 | 0.501 | 0.603 | 0.557 | 1.07 | 0.516 | 0.346 | 0.828 | 0.71 | 1.32 | 0.464 | 1.29 | 0.535 |
| LDVGEYCVPRG [BEX1_Y43_A40V] | 0.755 | 0.503 | 0.698 | 1.09 | 2.47 | 2.26 | 0.842 | 1.32 | 0.853 | 0.568 | 3.73 | 1.23 | 1.21 | 0.982 | 5.36 | 0.539 |
| CRIELYRVVES [IGFBP1_Y181] | 0.819 | 0.538 | 0.653 | 0.476 | 0.68 | 0.989 | 0.537 | 1.11 | 0.574 | 0.46 | 0.759 | 0.887 | 1.29 | 0.545 | 1.2 | 0.437 |
| APGNAYGDAGY [SYP_Y250_D248N] | 0.681 | 0.441 | 0.52 | 0.418 | 0.451 | 0.515 | 0.452 | 0.851 | 0.474 | 0.423 | 0.607 | 0.512 | 0.77 | 0.428 | 0.731 | 0.497 |
| IENKLYGMSDS [RET_Y1062_P1067S] | 0.706 | 0.451 | 0.663 | 0.438 | 0.524 | 0.464 | 0.646 | 1.08 | 0.543 | 0.547 | 0.678 | 0.511 | 0.948 | 0.484 | 0.805 | 0.614 |
| IGSHAYGDQFR [IDH1_Y135_R132S_YF] | 0.892 | 0.425 | 0.96 | 0.464 | 0.389 | 0.32 | 0.394 | 0.477 | 0.498 | 0.377 | 0.363 | 0.51 | 0.556 | 0.518 | 0.527 | 0.353 |
| LLANAYIYDVQ [L1CAM_Y418_V421D] | 0.803 | 0.818 | 1.13 | 6.7 | 1.56 | 1.46 | 0.802 | 1.22 | 4.13 | 2.71 | 0.538 | 0.616 | 1.27 | 0.391 | 1.17 | 3.69 |
| GFGGGYGGVLT [KRT19_Y65_A60G_YF] | 1.06 | 0.478 | 0.999 | 0.47 | 0.444 | 0.452 | 0.492 | 0.575 | 0.488 | 0.381 | 0.493 | 0.522 | 0.696 | 0.491 | 0.626 | 0.45 |
| IDLEKYKLLPE [DHFR_Y157] | 0.844 | 0.486 | 0.718 | 0.511 | 0.738 | 0.528 | 0.51 | 0.92 | 0.433 | 0.484 | 0.775 | 0.683 | 1.2 | 0.546 | 0.956 | 0.39 |
| QRPFVYFFSFL [PTEN_Y176_R173P_YF] | 1.29 | 0.783 | 1.13 | 0.721 | 0.703 | 0.783 | 0.707 | 1.33 | 0.426 | 0.664 | 0.967 | 1.39 | 1.54 | 0.789 | 1.23 | 0.748 |
| TFVVLYDAELT [ERCC4_Y581_R576T_YF] | 1.38 | 0.893 | 1.73 | 0.712 | 1.03 | 1.18 | 0.669 | 1.49 | 0.568 | 0.724 | 0.979 | 0.92 | 1.61 | 0.696 | 1.31 | 0.596 |
| VRFMADTDETF [F8_Y450_Y450D] | 0.676 | 0.403 | 0.542 | 0.54 | 0.644 | 0.63 | 0.628 | 1.07 | 0.59 | 0.451 | 0.856 | 0.755 | 1.3 | 0.505 | 1.21 | 0.471 |
| KGSEGYLAATF [NF1_Y2503_YF] | 0.766 | 0.474 | 0.847 | 0.501 | 0.402 | 0.41 | 0.45 | 0.709 | 0.416 | 0.514 | 0.634 | 0.549 | 0.658 | 0.444 | 0.654 | 0.564 |

| Sequence | SH2 binding enrichment (Grb2 SH2) | SH2 binding enrichment (c-Src SH2) | SH2 binding enrichment (SHP2-C SH2) | phosphorylation enrichment (Fyn) | phosphorylation enrichment (EPHB2) | phosphorylation enrichment (EPHB1) | phosphorylation enrichment (Fer (mouse)) | phosphorylation enrichment (Jak2) | phosphorylation enrichment (Hck) | phosphorylation enrichment (MERTK) | phosphorylation enrichment (c-Abl (mouse)) | phosphorylation enrichment (FGFR3) | phosphorylation enrichment (Fes) | phosphorylation enrichment (FGFR1) | phosphorylation enrichment (AncSZ) | phosphorylation enrichment (c-Src) |
| --- | --- | --- | --- | --- | --- | --- | --- | --- | --- | --- | --- | --- | --- | --- | --- | --- |
| TKAEKYVNKPK [PLCG1_Y991_A995P] | 1.05 | 0.999 | 1.16 | 0.398 | 0.376 | 0.336 | 0.442 | 0.596 | 0.559 | 0.423 | 0.942 | 0.534 | 0.714 | 0.594 | 0.72 | 0.467 |
| MENFIYESMQF [CYP19A1_Y361_R365Q_YF] | 0.679 | 0.448 | 0.691 | 9.33 | 5.77 | 8.07 | 16.1 | 1.04 | 7.84 | 6.46 | 4.06 | 0.759 | 6.34 | 0.888 | 1.81 | 7.14 |
| PSPMPYASCQM [FOXL2_Y215] | 0.688 | 1.24 | 0.848 | 0.519 | 0.65 | 0.631 | 1 | 0.98 | 0.661 | 0.608 | 0.666 | 0.625 | 1.07 | 0.671 | 1.28 | 0.865 |
| DFDHSYFFIAT [ESD_Y262_G257D_YF] | 0.828 | 0.455 | 0.568 | 0.55 | 0.606 | 0.717 | 0.786 | 7.99 | 0.694 | 0.867 | 0.958 | 7.62 | 1.36 | 8.9 | 2.16 | 0.738 |
| DLRTGYSVPFG [TGM1_Y370_Y365D_YF] | 0.973 | 7.49 | 0.928 | 0.48 | 0.468 | 0.44 | 0.486 | 0.576 | 0.418 | 0.364 | 0.794 | 0.644 | 0.721 | 0.493 | 0.664 | 0.341 |
| HRGSLYLAIEY [TEK_Y899_Y897S] | 0.646 | 0.375 | 0.501 | 0.58 | 0.776 | 0.819 | 0.853 | 2.2 | 0.798 | 0.834 | 2.14 | 1.3 | 2.15 | 0.581 | 1.87 | 0.734 |
| PVPKTYDMLKA [PKP2_Y108] | 0.806 | 1.39 | 0.695 | 0.764 | 0.541 | 1.2 | 0.577 | 1.92 | 1.46 | 0.648 | 1.01 | 0.707 | 1.02 | 0.766 | 1.07 | 0.861 |
| SWDKRYCEAGF [ITGA2B_Y197] | 1.07 | 0.812 | 0.569 | 0.509 | 0.692 | 0.867 | 0.531 | 0.888 | 0.648 | 0.455 | 0.687 | 0.561 | 1.28 | 0.506 | 0.892 | 0.426 |
| NELTFYCCKKD [CD59_Y87_YF] | 0.938 | 0.503 | 0.707 | 0.452 | 0.739 | 0.514 | 0.461 | 1.29 | 0.46 | 0.466 | 0.808 | 0.715 | 1.28 | 0.54 | 1.39 | 0.436 |
| LVQAEYWHDPI [PPT1_Y185] | 0.824 | 1.11 | 0.638 | 0.58 | 0.487 | 0.677 | 0.644 | 1.18 | 0.593 | 0.591 | 1.36 | 2.98 | 1.48 | 3.89 | 1.48 | 0.61 |
| YFRDGYMPRQY [GSS_Y270] | 1.01 | 0.627 | 0.848 | 0.479 | 0.491 | 0.429 | 0.531 | 0.928 | 0.402 | 0.418 | 0.496 | 2.73 | 0.74 | 3.74 | 0.615 | 0.509 |
| FSQQVYRVNLS [FAT4_Y480] | 0.827 | 0.48 | 0.882 | 1.01 | 0.48 | 0.563 | 0.495 | 0.762 | 0.392 | 0.409 | 0.532 | 0.516 | 0.729 | 0.49 | 0.658 | 0.623 |
| TLSGTYQFIIA [FOXL2_Y81_I80T_YF] | 0.968 | 1.11 | 1.13 | 0.814 | 0.924 | 1.31 | 1.44 | 0.732 | 1.34 | 2.89 | 0.611 | 1.9 | 1.05 | 2.22 | 1.27 | 0.892 |
| AGTILYHAHLG [ASS1_Y291_D296G] | 0.737 | 0.483 | 0.543 | 0.564 | 0.633 | 0.534 | 0.495 | 0.816 | 0.61 | 0.863 | 0.727 | 0.625 | 1.07 | 0.517 | 0.819 | 0.549 |
| PLDGEYLTLQI [TP53_Y327_F328L] | 0.522 | 0.504 | 0.555 | 1.08 | 1.23 | 1.46 | 1.08 | 2.48 | 0.927 | 0.764 | 2.16 | 2.15 | 2.31 | 1.64 | 2.75 | 1.14 |
| YIATQYSLCPR [LBR_Y166_R169C] | 0.885 | 0.713 | 0.839 | 0.67 | 0.817 | 0.511 | 0.606 | 0.873 | 0.719 | 1.75 | 0.716 | 1.19 | 0.907 | 1.73 | 1.23 | 0.725 |
